Test results reported in publication PMC10967930.

Assays:
[1] = biological target: human PF4 isolated from human platelets (human); assay: other fluorescence titration
[2] = biological target: full-length SARS-CoV-2 spike protein of original COVID-19 (SARS-CoV-2) (UniProt P0DTC2); assay: ELISA

Row | Substance | Kd [1] [µM] | OD at 450 nm [2]
1 | full-length SARS-CoV-2 spike protein of original COVID-19 (from UniProt P0DTC2) (natural protein) | 0.586 | 
2 | human PF4 isolated from human platelets (natural protein) |  | > 0.5
